Assay results taken from article PMC4657047, “Structure of the Human Factor VIII C2 Domain in Complex with the 3E6 Inhibitory Antibody” (Scientific Reports, 2015).

Biological target: T1, human blood coagulation factor VIII C2 domain (human, UniProt P00451)
T1 construct: C2 domain of human blood coagulation factor VIII; pET15b with N-terminal His6 tag and a thrombin cleavage site; also called fVIII C2 domain
Assay: crystal structure; C2 domain/3E6 FAB binary complex formed at 37 °C for 30 minutes with 1.5-fold molar excess of C2 domain, separated on Superdex 75; crystals from 10 mM MES (pH 6.4-6.8), 20% (w/v) PEG 8000; two complexes in the asymmetric unit; 2.61 Å
Details: both partners purified

T1 sequence (P00451 2190-2351): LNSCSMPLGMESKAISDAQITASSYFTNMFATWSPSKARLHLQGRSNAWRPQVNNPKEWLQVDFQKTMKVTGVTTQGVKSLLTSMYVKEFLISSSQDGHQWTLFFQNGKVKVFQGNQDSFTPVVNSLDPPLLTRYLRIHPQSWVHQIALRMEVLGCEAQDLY

B1: 3E6 antigen-binding fragment (FAB) of the classical anti-fVIII C2 domain inhibitory antibody 3E6 (Fab, V domains shown)
VH: QIQLVQSGPELKKPGKTVKISCKASDYTFTDYSLHWVKQAPGKGLKWMGWINTETGDPAYADDFKGRFAFSLETSVRTAYLQINNLKNEDTAIYFCAREDDGLASWGQGTTLTVSS
VL: QIVLTQSPAIMSASPGEKVTMTCSASSTVSYMYWYQQKPGSSPRFLISDTSNLASGVPVRFSGSGSGTSYSLTISRIEAEDAATYYCQHWSSYPLTFGGGTKLELK
notes: heavy chain of the 3E6 FAB is chain A (complex 1) and chain E (complex 2) of PDB 4XZU; light chain of the 3E6 FAB is chain B (complex 1) and chain F (complex 2) of PDB 4XZU; Fab made by papain cleavage of the murine monoclonal IgG; complex 1 (chains A, B) is the more complete model; also called 3E6 FAB; 3E6 antibody
B1: binds.
